The source of these data is PMC3144224, “Control of Gene Expression by the Retinoic Acid-Related Orphan Receptor Alpha in HepG2 Human Hepatoma Cells”.

For the data set, the target named is T1, RORα1 (NR1F1) (human, UniProt P35398 1-523).
T1 sequence: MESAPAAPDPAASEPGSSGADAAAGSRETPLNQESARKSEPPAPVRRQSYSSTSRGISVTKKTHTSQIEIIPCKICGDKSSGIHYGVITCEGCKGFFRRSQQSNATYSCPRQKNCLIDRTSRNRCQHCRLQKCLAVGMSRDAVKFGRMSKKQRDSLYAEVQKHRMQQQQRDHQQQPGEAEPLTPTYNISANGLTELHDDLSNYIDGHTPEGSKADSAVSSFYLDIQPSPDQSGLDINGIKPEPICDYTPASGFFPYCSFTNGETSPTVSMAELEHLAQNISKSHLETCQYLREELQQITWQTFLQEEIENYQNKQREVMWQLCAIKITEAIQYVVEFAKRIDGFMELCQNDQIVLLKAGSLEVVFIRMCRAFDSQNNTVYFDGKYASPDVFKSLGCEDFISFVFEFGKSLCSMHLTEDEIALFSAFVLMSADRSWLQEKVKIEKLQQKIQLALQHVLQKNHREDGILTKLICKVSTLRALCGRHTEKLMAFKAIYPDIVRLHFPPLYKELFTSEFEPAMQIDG
The data set is described as follows: EMSA; 15 mM Tris-HCl pH 7.5, 50 mM KCl, 15 mM NaCl, 1 mM MgCl2, 0.03 mM EDTA, 1 mM DTT, 7% glycerol, 50 ng poly(dI-dC), 50 ng unspecific ss oligonucleotides, 0.15 ng. The settings on record: protein: ivt; label: 32P (Klenow fill-in, [α-32P]-dATP) when used as probe.

B1: SPARC-RORE (dsDNA)
DNA 1: CGGTAGGCTGTTCTGGGTCATCCCTCCAGG
DNA 2: ACGTCCTGGAGGGATGACCCAGAACAGCCT
As for B1, the binding result was “binds”.
